This note sets out measurements from article PMC1184076, “Modulation of p53 activity by IκBα: Evidence suggesting a common phylogeny between NF-κB and p53 transcription factors” (BMC Immunology, 2005).

For this experiment, the target named is T1, GST-p53, purified, bacterially produced (UniProt P04637 1-393).
T1 construct: p53 tumor suppressor protein; also called p53-pGEX; purified p53; source: bacteria, from a pGEX construct, purified
Briefly: pull-down; purified GST-p53 (or GST-c-Jun) incubated with purified His-IκBα in IP buffer (25 mM Hepes pH 7.5, 75 mM KCl, 2.5 mM MgCl2, 0.1 mM EDTA, 0.15% NP-40, 1 mM DTT); glutathione Sepharose beads; autoradiography of 32P-IκBα or Western blot for IκBα. The note with it: both partners purified. Background: In western blotting, separated proteins are transferred to a membrane and probed.

T1 sequence (P04637 whole entry): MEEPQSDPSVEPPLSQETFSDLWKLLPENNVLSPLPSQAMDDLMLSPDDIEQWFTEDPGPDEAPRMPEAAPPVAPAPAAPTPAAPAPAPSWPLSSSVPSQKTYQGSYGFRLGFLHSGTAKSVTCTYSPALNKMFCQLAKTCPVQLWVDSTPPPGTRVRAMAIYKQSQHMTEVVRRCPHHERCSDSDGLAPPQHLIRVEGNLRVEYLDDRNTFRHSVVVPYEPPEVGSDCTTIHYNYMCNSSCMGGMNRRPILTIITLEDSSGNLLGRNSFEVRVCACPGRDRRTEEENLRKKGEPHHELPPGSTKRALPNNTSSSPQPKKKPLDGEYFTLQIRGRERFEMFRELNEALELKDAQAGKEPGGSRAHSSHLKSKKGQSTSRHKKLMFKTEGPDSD

B1: [32P]-labeled 6xHis-tagged IκBα (His-IκBα), phosphorylated in vitro by p90rsk (natural protein, UniProt P25963 1-317, looked up)
chain: MFQAAERPQEWAMEGPRDGLKKERLLDDRHDSGLDSMKDEEYEQMVKELQEIRLEPQEVPRGSEPWKQQLTEDGDSFLHLAIIHEEKALTMEVIRQVKGDLAFLNFQNNLQQTPLHLAVITNQPEIAEALLGAGCDPELRDFRGNTPLHLACEQGCLASVGVLTQSCTTPHLHSILKATNYNGHTCLHLASIHGYLGIVELLVSLGADVNAQEPCNGRTALHLAVDLQNPDLVSLLLKCGADVNRVTYQGYSPYQLTWGRPSTRIQQQLGQLTLENLQMLPESEDEESYDTESEFTEFTEDELPYDDCVFGGQRLTL
modifications: 32P-phosphate put on in vitro by p90rsk; site not stated
notes: IκBα, wild type; also called [^32P]-labeled IκBα; purified bacterially-produced wild-type IκBα; source: bacterially produced, purified; labeled in vitro with [γ-32P]ATP and Xenopus laevis p90rsk
For B1, the binding result was “binds”.

B2: 6xHis-tagged IκBα (His-IκBα), purified, bacterially produced (natural protein, UniProt P25963 1-317, looked up)
chain: B1 chain
notes: IκBα, wild type; also called purified IκBα protein; hexahistidine-tagged IκBα; source: bacterially produced, purified
Take B2: the binding result was “binds”.
